Measurements reported in article PMC4666351, “A novel transcriptional regulator of L-arabinose utilization in human gut bacteria”.

T1: BtAraR V92D (Bacteroides thetaiotaomicron (VPI-548 …, UniProt Q8AAV8 1-225, V92D))
T1 sequence: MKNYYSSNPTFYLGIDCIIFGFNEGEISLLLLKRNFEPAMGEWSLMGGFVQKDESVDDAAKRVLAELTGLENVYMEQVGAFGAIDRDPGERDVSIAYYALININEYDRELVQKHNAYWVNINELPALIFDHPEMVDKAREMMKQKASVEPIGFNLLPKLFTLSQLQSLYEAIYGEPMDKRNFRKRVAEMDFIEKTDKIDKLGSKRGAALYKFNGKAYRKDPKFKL

T2: BtAraR F49Q (Bacteroides thetaiotaomicron (VPI-548 …, UniProt Q8AAV8 1-225, F49Q))
T2 sequence: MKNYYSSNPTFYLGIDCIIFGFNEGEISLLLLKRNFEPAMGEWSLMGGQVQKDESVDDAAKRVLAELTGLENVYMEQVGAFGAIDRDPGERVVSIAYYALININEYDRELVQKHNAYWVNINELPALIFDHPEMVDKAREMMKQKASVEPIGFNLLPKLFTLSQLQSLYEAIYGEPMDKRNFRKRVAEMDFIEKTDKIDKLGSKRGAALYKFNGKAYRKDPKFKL

T3: BtAraR R34N (Bacteroides thetaiotaomicron (VPI-548 …, UniProt Q8AAV8 1-225, R34N))
T3 sequence: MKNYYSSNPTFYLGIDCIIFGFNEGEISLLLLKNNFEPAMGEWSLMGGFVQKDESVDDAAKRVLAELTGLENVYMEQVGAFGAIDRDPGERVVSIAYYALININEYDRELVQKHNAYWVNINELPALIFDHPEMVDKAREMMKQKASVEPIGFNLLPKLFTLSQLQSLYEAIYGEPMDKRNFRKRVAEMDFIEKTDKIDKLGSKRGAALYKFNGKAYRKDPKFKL


Experiments:
[1] = molecular target: BtAraR (BT0354), NrtR family transcription factor of Bacteroides thetaiotaomicron (B. thetaiotaomicron); test: crystal structure; four crystal forms of SeMet BtAraR: apo-1 (R3), apo-2 (I2_(1)3), complex with a 27-bp DNA duplex (P23), complex with L-arabinose (P2_(1)); data at 100 K
BtAraR V92D = molecular target: T1, BtAraR V92D; test: EMSA; 1 uM protein; EMSA: 20 mM Tris-HCl pH 8.0, 150 mM KCl, 5 mM MgCl2, 1 mM DTT, 0.05% NP-40, 2.5% glycerol, 37 C, 30 min; DNA 0.2 nM (0.16 nM in Fig S4), protein 0.25-1 uM; settings: protein: recombinant; label: 5'-biotin on one strand; blunt
BtAraR F49Q = molecular target: T2, BtAraR F49Q; test: EMSA; 0.5 mM L-arabinose, 1 uM protein; EMSA: 20 mM Tris-HCl pH 8.0, 150 mM KCl, 5 mM MgCl2, 1 mM DTT, 0.05% NP-40, 2.5% glycerol, 37 C, 30 min; DNA 0.2 nM (0.16 nM in Fig S4), protein 0.25-1 uM; settings: protein: recombinant; chain copies: 2; label: 5'-biotin on one strand; blunt
BtAraR R34N = molecular target: T3, BtAraR R34N; test: as above; settings: protein: recombinant; chain copies: 2; label: 5'-biotin on one strand; blunt

stoichiometry N [1]	Molecule	binding result (BtAraR V92D)	binding result (BtAraR F49Q)	binding result (BtAraR R34N)
2	BtAraR (BT0354), NrtR family transcription factor of Bacteroides thetaiotaomicron (natural protein)	–	–	–
–	BT0356 (araM) promoter 65-bp (dsDNA) DNA 1: CCCCCATATAAGAGTGTATTTGATACACCAAACAAAAGTGTTACTTTTACACCCAAAATACCCCC DNA 2: GGGGGTATTTTGGGTGTAAAAGTAACACTTTTGTTTGGTGTATCAAATACACTCTTATATGGGGG	no binding	binds	binds
